Reference: patent US9228020B2, “Compositions and methods for diagnosing and treating cancer” (OncoMed Pharmaceuticals, Inc., priority 2006, dated 2016)
Where a chain is given by its changes, count along the chain named.

B1: 21M18 H7L2: humanized 21M18, heavy chain Kabat position 52a serine (H7) with L2; ATCC deposit no. PTA-8425 (antibody, V domains shown)
VH: QVQLVQSGAEVKKPGASVKISCKASGYSFTAYYIHWVKQAPGQGLEWIGYISSYNGATNYNQKFKGRVTFTTDTSTSTAYMELRSLRSDDTAVYYCARDYDYDVGMDYWGQGTLVTVSS
VL: DIVMTQSPDSLAVSLGERATISCRASESVDNYGISFMKWFQQKPGQPPKLLIYAASNQGSGVPDRFSGSGSGTDFTLTISSLQAEDVAVYYCQQSKEVPWTFGGGTKVEIK
B2: 21M18 H9L2: humanized 21M18, heavy chain Kabat position 52a valine (H9) with L2; ATCC deposit no. PTA-8427 (antibody, V domains shown)
VH: B1 VH with S53V
VL: B1 VL

Molecular target: T1, DLL4 antigen (Homo sapiens, UniProt Q9NR61)
T1 construct: DLL4 antigen protein comprises approximately amino acid 27 through amino acid 522; made in house; host or cells: insect cells (baculovirus)
T1 sequence (Q9NR61 27-522): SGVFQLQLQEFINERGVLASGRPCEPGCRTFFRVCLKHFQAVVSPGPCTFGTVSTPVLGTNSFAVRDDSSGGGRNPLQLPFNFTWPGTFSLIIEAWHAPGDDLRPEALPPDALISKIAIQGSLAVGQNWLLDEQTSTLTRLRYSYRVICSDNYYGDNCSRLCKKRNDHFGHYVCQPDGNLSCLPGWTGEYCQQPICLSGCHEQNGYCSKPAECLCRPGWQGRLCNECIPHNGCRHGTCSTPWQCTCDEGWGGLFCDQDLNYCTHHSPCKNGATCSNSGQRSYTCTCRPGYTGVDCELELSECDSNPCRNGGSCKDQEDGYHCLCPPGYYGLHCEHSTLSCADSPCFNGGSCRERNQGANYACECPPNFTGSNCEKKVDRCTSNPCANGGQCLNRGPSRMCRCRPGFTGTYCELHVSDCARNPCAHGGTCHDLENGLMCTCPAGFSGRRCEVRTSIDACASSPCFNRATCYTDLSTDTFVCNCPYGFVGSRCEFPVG
Assay: ELISA of conditioned media for DLL4 antigen binding (humanized variants)
Conditions: conditioned media of cotransfected HEK293 cells
Method: The functionality of each candidate variant humanized heavy and light chain was tested by cotransfection into mammalian cells. Each of the five candidate humanized 21M18 heavy chains described above was cotransfected with the murine 21M18 light chain cDNA into HEK 293 cells, and conditioned media was then assayed for DLL4 antigen binding activity by ELISA. […] This variant—“21M18 H2”—contained, in additional to murine CDRs, murine residues at five framework positions, Kabat positions 20, 28, 38, 48, and 69 (FIG. 4). The 21M18 H2 humanized heavy chain was then cotransfected with each of the five candidate humanized light chains into HEK293 cells, and conditioned media was again assayed for antigen binding by ELISA.
Next, the isolated cysteine residue in CDR2H2 (SEQ ID NO: 2) was altered. Specifically, two heavy chain variants of H2 were synthesized with the cysteine residue at Kabat position 52a modified to a serine (variant H7; SEQ ID NO: 3) or a valine (variant H9; SEQ ID NO: 4) residue. These heavy chains were cotransfected into HEK293 cells with L2, and conditioned media was again assayed. […] Thus 21M18 heavy chain CDR2 comprises SEQ ID NO: 2, 3, or 4 in which the residue at Kabat position 52a comprises a cysteine, serine, or valine residue.

| Molecule | antigen binding by ELISA |
| --- | --- |
| B1 | demonstrated specific antigen binding |
| B2 | demonstrated specific antigen binding |
